Results: the supplement of paper PMC10201428
± gives the standard deviation of the averaged measurements.

system: VchCAST RNA-guided transposition machinery (E. coli BL21(DE3) host, lacZ target); experiment: relative integration efficiency (T-RL orientation) vs wild-type transposon end (log2 (normalized fold change)); transposon end mutated: right end (5 bp flank + 75 bp right end); higher = more efficient transposition
Description: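 Pooled, barcoded VchCAST (Tn6677) mini-transposon donor libraries; each variable transposon-end sequence sits in a fixed pDonor mini-transposon context (10-bp barcode and cargo not included). Left- or right-end libraries were co-transformed with pEffector (TniQ-Cascade, TnsABC, lacZ crRNA, T7, 0.1 mM IPTG) into E. coli BL21(DE3) and grown 18 h at 37 C. T-LR and T-RL junction amplicons were sequenced; output/input barcode fold change was normalised to the mean of four wild-type barcodes and log2-transformed. Two biological replicates; zero-count/undetected variants carry floor values (-10 / -15), censored here. Barcode uncoupling by PCR recombination adds noise.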

Going from “ACATTGGTTCATACAACCATAAAATGATAATTACACCCATAAATTGATCATTATCACACCCAATTTAACTATAACGCTCTGATCATAGTCAGACCAACATTGCTACGACCCGTATTCGCACCGACAC” to “ACATTTGTAAAAAAAACCATACGTTGATTTTACGAAACCATACGCTGAAATAATCACACCCATAAATTGAAATTGCCTCTGATCATAGTCAGACCAACATTGCTACGACCCGTATTCGCACCGACAC”, the “relative integration efficiency (log2)” value rises from -7.14 ± 0.11 to -5.81 ± 0.093.

“ACATTGGTCGATACAACCATAAAATGATAATTACACCCATAAATGGATAATTATCACACCCAATTTAACTATAACGCTCTGATCATAGTCAGACCAACATTGCTACGACCCGTATTCGCACCGACAC” and “ACATTGGTTCATACAACCATAAAATGATAATTACACCCATAAATGGATCATTATCACACCCAATTTAACTATAACGCTCTGATCATAGTCAGACCAACATTGCTACGACCCGTATTCGCACCGACAC” are within error of each other in “relative integration efficiency (log2)” value: -7.16 ± 0.89 for the first, -7.4 ± 0.26 for the second.

Compared with “ACATTTGTTGATATGTTGCAACCATAAAATGATAATTACACCCATAAATTGATAATTATCACACCCATAAATTGATATTGCCTCTGATCATAGTCAGACCAACATTGCTACGACCCGTATTCGCACC”, “ACATTTGTTGATACAACCATAAAATGATAATTAATAATTATTTATAATCAGCAACTTAACCACAAAACACCCATAAATTGATAATTAACAAAACACCCATAAATTGATATTGCTGTGAATCGAGTAT” is higher in “relative integration efficiency (log2)” value: -6.84 ± 0.38 for the first, -5.86 ± 0.28 for the second.

First: ACATTTGTTGATATGTCAACCATAAAATGATAATTACACCCATAAATTGATAATTATCACACCCATAAATTGATATTGCCTCTGATCATAGTCAGACCAACATTGCTACGACCCGTATTCGCACCGA
Second: CAAAATGTTGATAAAACCATACGTTGATTTTACGAAACCATACGCTGAAATAAAAACAACCATACCTTGAAATTGCTTATAAAGTGTACAACACTTGAGAAAGTTTACTACAGGTATGCACCGACAC
The “relative integration efficiency (log2)” value of the first is higher: -2.13 ± 0.23 for the first, -9.08 ± 1.1 for the second.

Compared with “ACATTTGTTGATACAACCATAAAATGATAATTAATAATTATTTATAATCAGCAACACCCATAAATTGATAATTATCACACCCATAAATTGATATTGCCTCTGATCATAGTCAGACCAACATTGCTAC”, “ACATTTGTTGATACAACCATAAACGTCGCCGGCACAAACGCCCGGTCGCCGGCGACACAAACGCCCGGTCGCGGTAAGAGGATCATAGTCAGACCAACATTGCTACGACCCGTATTCGCACCGACAC” is lower in “relative integration efficiency (log2)” value: -3.61 ± 0.38 for the first, -6.69 ± 0.61 for the second.

Compared with “ACATTTGTTGATAACCAACGCCCCGTCGCCGGCCACCCATAAATTGATAATTATCACACCCATAAATTGATATTGCCTCTGATCATAGTCAGACCAACATTGCTACGACCCGTATTCGCACCGACAC”, “ACATTTGTTGATACAACCATAAAATGATAATTAATAATTATTTATAATCAGCAACTTAACCACAAAACACCCATAAATTGATAATTATCACACCCATAAATTGATATTGCCTCTGATCATAGTCAGA” is higher in “relative integration efficiency (log2)” value: -7.56 ± 0.64 for the first, -4.6 ± 1 for the second.

Compared with “ACATTTGTAAAAAAAACCATACGTTGATTTTACGAAACCATACGCTGAAATAATCACAACCATACCTTGAAATTGCCTCTGATCATAGTCAGACCAACATTGCTACGACCCGTATTCGCACCGACAC”, “ACATTTGTTGATATAATTATCATTTTATGGTTGTAATTATCATTTTATGGTTGTCACAACCATAAAATGATAATTACTCTGATCATAGTCAGACCAACATTGCTACGACCCGTATTCGCACCGACAC” is higher in “relative integration efficiency (log2)” value: -7.16 ± 0.43 for the first, -6.264 ± 0.019 for the second.

Going from “ACAGGGTTTGATACAACCATAAAATGATAATTACACCCATAAATTGATAATTATCACACCCATAAATTGATATTGCCTCTGATCATAGTCAGACCAACATTGCTACGACCCGTATTCGCACCGACAC” to “ACATTTGAACTTACAACCATAAAATGATAATTACACCCATAAATTGATAATTATCACACCCATAAATTGATATTGCCTCTGATCATAGTCAGACCAACATTGCTACGACCCGTATTCGCACCGACAC”, the “relative integration efficiency (log2)” value rises from -7.26 ± 0.17 to -5.07 ± 0.78.

Compared with “ACATTTGTTGATACAACCCGCCCCGTCGCCGGCACAAACGCCCGGTCGCCGGCGACACAAACGCCCGGTCGCGGTAAGAGGATCATAGTCAGACCAACATTGCTACGACCCGTATTCGCACCGACAC”, “ACATGGTGTGATACAACCATAAAATGATAATTACACCCATAAATTGATAATTATCACACCCATAAATTGATATTGCCTCTGATCATAGTCAGACCAACATTGCTACGACCCGTATTCGCACCGACAC” is higher in “relative integration efficiency (log2)” value: -8.51 ± 0.73 for the first, -6.87 ± 0.18 for the second.

“ACATTTGTTGAAAAAACCATACGTTGATTTTACGAAACCATACGCTGAAATAATCACACCCATAAATTGATATTGCCTCTGATCATAGTCAGACCAACATTGCTACGACCCGTATTCGCACCGACAC” and “ACATTTGTAAAAAAAACCATACGTTGATTTTACGAAACCATACGCTGAAATAATCACAACCATAAATTGATATTGCCTCTGATCATAGTCAGACCAACATTGCTACGACCCGTATTCGCACCGACAC” are within error of each other in “relative integration efficiency (log2)” value: -6.48 ± 0.15 for the first, -6.87 ± 0.53 for the second.

First: ACATTTGTTGATACAACACGCCCCGTCGCCGGCACAAACGCCCGGTCGCCGGCGACACAAACGCCCGGTCGCGGTAAGAGGATCATAGTCAGACCAACATTGCTACGACCCGTATTCGCACCGACAC
Second: ACATTTGTTGATACAACCATAAAATGATAATTAATAATTATTTATAATCAGCAACTTAACCACAAAACACCCATAAATTGATAATTAACACACCCATAAATTGATATTGCCTCTGATCATAGTCAGA
The “relative integration efficiency (log2)” value of the first is lower: -6.42 ± 0.17 for the first, -5.33 ± 0.24 for the second.

“ACATTTGTTGATACAACCATAAAATGATAATTAATAATTATTTATAATCAGCAACTTAACCACAAAACACCCATAAATTGATAATTAACAAACACCCATAAATTGATATTGCCTCTGATCATAGTCA” and “ACATTTGTTCATACAACCCTAAAATGATAATTACACCCATAAATTCATAATTATCACCCCCAATTTAACTATAACGCTCTGATCATAGTCAGACCAACATTGCTACGACCCGTATTCGCACCGACAC” are within 0.2 log units of each other in “relative integration efficiency (log2)” value: -5.35 ± 0.69 for the first, -5.3 ± 0.43 for the second.

“ACATTTGTAAAAAAAACCATACGTTGATTTTACGAAACCATACGCTGAAATAAAAACAACCATACCTTGAAATTGCTTATGATCATAGTCAGACCAACATTGCTACGACCCGTATTCGCACCGACAC” and “ACATTTGTTCAACCATAAAATGATAATTACACCCATAAATTGATAATTATCACACCCATAAATTGATATTGCCTCTGATCATAGTCAGACCAACATTGCTACGACCCGTATTCGCACCGACACTGAC” are within error of each other in “relative integration efficiency (log2)” value: -8.13 ± 1.3 for the first, -7.3 ± 0.12 for the second.

First: ACATTTGTTGATACAACCATATTTACATAATTACACCCATATTAACATAATTATCACACCCATATTAACATATTGCCTCTGATCATAGTCAGACCAACATTGCTACGACCCGTATTCGCACCGACAC
Second: ACATAACATGATACAACCATAAAATGATAATTACACCCATAAATTGATAATTATCACACCCATAAATTGATATTGCCTCTGATCATAGTCAGACCAACATTGCTACGACCCGTATTCGCACCGACAC
The “relative integration efficiency (log2)” value of the first is lower: -7.03 ± 0.43 for the first, -5.71 ± 0.74 for the second.

“ACATTACTTGATACAACCATAAAATGATAATTACACCCATAAATTGATAATTATCACACCCATAAATTGATATTGCCTCTGATCATAGTCAGACCAACATTGCTACGACCCGTATTCGCACCGACAC” and “ACATTTGTTAATAAAACCATACGTTGATTTTACGAAACCATACGCTGAAATAATCACACCCATAAATTGATATTGCCTCTGATCATAGTCAGACCAACATTGCTACGACCCGTATTCGCACCGACAC” are within 0.2 log units of each other in “relative integration efficiency (log2)” value: -6.45 ± 0.27 for the first, -6.57 ± 0.26 for the second.

“ACATTGTGGGATACAACCATAAAATGATAATTACACCCATAAATTGATAATTATCACACCCATAAATTGATATTGCCTCTGATCATAGTCAGACCAACATTGCTACGACCCGTATTCGCACCGACAC” and “ACATTTGTTGATGCAACCATAAAATGATAATTAATAATTATTTATAATCAGCAACTTAACCACAAAACACCCATAAATTGATAATTAACAAAACACCCATAAATTGATATTGCCTCTGATCATAGTC” are within error of each other in “relative integration efficiency (log2)” value: -5.61 ± 0.22 for the first, -4.62 ± 0.92 for the second.

Compared with “ACATTTGTTGATACAACCATCCCCGTCGCCGGCACAAACGCCCGGTCGCCGGCGACACAAACGCCCGGTCGCGGTAAGAGGATCATAGTCAGACCAACATTGCTACGACCCGTATTCGCACCGACAC”, “ACAAAACTTGATACAACCATAAAATGATAATTACACCCATAAATTGATAATTATCACACCCATAAATTGATATTGCCTCTGATCATAGTCAGACCAACATTGCTACGACCCGTATTCGCACCGACAC” is higher in “relative integration efficiency (log2)” value: -7.485 ± 0.063 for the first, -6.59 ± 0.45 for the second.

“ACATTTGTTGATACAACCATACCCGGATAATTACACCCATACCGGGATAATTATCACACCCATACCGGGATATTGCCTCTGATCATAGTCAGACCAACATTGCTACGACCCGTATTCGCACCGACAC” and “ACATTTGTTGCAACCATAAAATGATAATTACACCCATAAATTGATAATTATCACACCCATAAATTGATATTGCCTCTGATCATAGTCAGACCAACATTGCTACGACCCGTATTCGCACCGACACTGA” are within error of each other in “relative integration efficiency (log2)” value: -6.7 ± 0.28 for the first, -7.1 ± 0.91 for the second.

“ACATTAGTTCATACAACCATAAAATGATAATTACACCCATAAATTCATAATTATCACACCCAATTTAACTATAACGCTCTGATCATAGTCAGACCAACATTGCTACGACCCGTATTCGCACCGACAC” and “ACATTTGTTGATACCCAACGCCCCGTCGCCGGCACAAACGCCCGGTCGCCGGCGACACAAACGCCCGGTCGCGGTAAGAGGATCATAGTCAGACCAACATTGCTACGACCCGTATTCGCACCGACAC” are within error of each other in “relative integration efficiency (log2)” value: -6.79 ± 0.48 for the first, -6.49 ± 0.44 for the second.

Going from “ACATTTGTTGATAGTTGGTATTTTACTATTAATCACCCATAAATTGATAATTATCACACCCATAAATTGATATTGCCTCTGATCATAGTCAGACCAACATTGCTACGACCCGTATTCGCACCGACAC” to “ACATTTGTTGATATAATTATCATTTTATGGTTGCAACCATAAAATGATAATTATCATAATTATCATTTTATGGTTGCTCTGATCATAGTCAGACCAACATTGCTACGACCCGTATTCGCACCGACAC”, the “relative integration efficiency (log2)” value rises from -7.24 ± 1 to -2.78 ± 0.3.

For “ACATTGGTCGATACAACCATAAAATGATAATTACACCCATAAATGGATCATTATCACACCCAATTTAACTATAACGCTCTGATCATAGTCAGACCAACATTGCTACGACCCGTATTCGCACCGACAC”, the “relative integration efficiency (log2)” value was -7.2 ± 0.28.
